Assay [1] concerns the target T1, Vascular endothelial growth factor (VEGF) (Homo sapiens (assumed), UniProt P15692-4). The assay can be described thus: cell-based or functional assay.
The target in assay [2] is T1, Vascular endothelial growth factor …. Description: BLI; Octet RED; anti-human IgG biosensor pre-saturated with bevacizumab or FD006 (10 ug/ml); VEGF at 10, 3 and 1 ug/ml in solution; 30°C, PBS; association 5 min, dissociation 10 min; non-linear global fit. The following applies: both partners purified.

T1 sequence (P15692 whole entry): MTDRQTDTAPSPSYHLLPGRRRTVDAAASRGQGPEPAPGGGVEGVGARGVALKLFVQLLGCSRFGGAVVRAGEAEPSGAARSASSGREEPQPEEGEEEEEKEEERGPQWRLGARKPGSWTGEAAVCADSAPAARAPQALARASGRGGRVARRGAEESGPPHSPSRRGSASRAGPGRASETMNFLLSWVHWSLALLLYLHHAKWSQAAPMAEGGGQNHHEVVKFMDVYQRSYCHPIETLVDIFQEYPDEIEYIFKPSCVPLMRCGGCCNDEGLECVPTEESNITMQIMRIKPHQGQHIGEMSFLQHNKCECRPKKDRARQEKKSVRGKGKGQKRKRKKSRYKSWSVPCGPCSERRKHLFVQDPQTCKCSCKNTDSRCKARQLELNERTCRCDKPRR

B1: FD006 (antibody, V domains shown)
VH: EVQLVQSGGGLVKPGGSLRLSCAASGFTLNASWIHWVRQAPGKGLEWVGAIYPYSGYSNYADSVKGRFTISADTSKNTLYLQMNSLRAEDTAVYYCARWGHSTSPYSAMDYWGQGTLVTVSS
VL: DIVMTQSPSSLSVSLGERVTITCRASQVLSRSLAWYQQKPGKAPKLLIYAASNVASGVPSRFSGSGSGTDFTLTISSLQPEDFATYYCQQSNTSPVTFGQGTKVEIK
notes: VH of FD006; heavy chain constant region of the full IgG; VL of FD006; light chain constant region of the full IgG; also called novel anti-VEGFA IgG; anti-VEGF monoclonal antibody FD006; source: recombinant vector transfected into mammalian cells, purified; prepared in our lab
As to B1, in assay [1], the “IC50 of inhibition of VEGF-induced proliferation of HUVEC (antibody pre-incubated with 10 ng/ml VEGF, 72 h, CCK8)” value was roughly 0.031 µg/mL. In assay [2], the Kd came to 0.311 nM, the dissociation rate constant (koff) turned out to be 4.59e-05 s⁻¹ and the kon came out at 148000 M⁻¹ s⁻¹.

The Kd is the equilibrium constant for the complex coming apart. As usually defined, the koff is the first-order rate constant of dissociation. For orientation: kon means the rate constant with which the complex forms. A high value points to faster complex formation.

For the origin of these results see article PMC3942068, “Pharmacological characteristics and efficacy of a novel anti-angiogenic antibody FD006 in corneal neovascularization” (BMC Biotechnology, 2014).
